{"source": "patent US20050026219A1", "about": "“Process for label-free measurement of modified substrate” (Boehringer Ingelheim Pharma GmbH & Co. KG, priority 2001, published 2005)", "key": {"[1]": {"biological_target": "phosphorylated Poly-(Glu, Tyr) 4:1 (after reaction with EGF-RK and ATP)", "experiment": "RIfS solution competition: PGT 10 ug/50 ul, EGF-RK 2 Units/50 ul, ATP; free antibody read on phosphotyrosine-diamino-PEG 2000 sensor; lower value = antibody taken up by phosphorylated substrate"}, "[2]": {"biological_target": "oligopeptide Ac-Ile-Tyr-Gly-Glu-Phe-NH2 \"M-2165\" (Messrs. Bachem, MW 668.8)", "experiment": "RIfS solution competition: M-2165 10 ug/50 ul, p60c-src-kinase 2 Units/50 ul, no ATP; free antibody read on phosphotyrosine-diamino-PEG 2000 sensor"}, "[3]": {"biological_target": "phosphorylated Poly-(Glu, Tyr) 4:1 (after reaction with EGF-RK and ATP)", "experiment": "RIfS solution competition: PGT 10 ug/50 ul, EGF-RK 1 Unit/50 ul, ATP, no inhibitor (staurosporin series); phosphotyrosine-diamino-PEG 2000 sensor"}, "[4]": {"biological_target": "Poly-(Glu, Tyr) 4:1 (MW: 39100, Messrs. Sigma; CAS number 97105-00-5)", "experiment": "RIfS solution competition: PGT 10 ug/50 ul, EGF-RK 1 Unit/50 ul, no ATP, no inhibitor (control of the genistein series); phosphotyrosine-diamino-PEG 2000 sensor"}, "[5]": {"biological_target": "Poly-(Glu, Tyr) 4:1 (MW: 39100, Messrs. Sigma; CAS number 97105-00-5)", "experiment": "RIfS solution competition: PGT 10 ug/50 ul, EGF-RK 2 Units/50 ul, no ATP; free antibody read on phosphotyrosine-diamino-PEG 2000 sensor"}, "[6]": {"biological_target": "phosphorylated Poly-(Glu, Tyr) 4:1 (after reaction with EGF-RK and ATP)", "experiment": "RIfS solution competition: PGT 10 ug/50 ul, EGF-RK 1 Unit/50 ul, ATP, no inhibitor (erbstatin analogue series); phosphotyrosine-diamino-PEG 2000 sensor"}, "[7]": {"biological_target": "Poly-(Glu, Tyr) 4:1 (MW: 39100, Messrs. Sigma; CAS number 97105-00-5)", "experiment": "RIfS solution competition: PGT 10 ug/50 ul, EGF-RK 1 Unit/50 ul, no ATP; free antibody read on phosphotyrosine sensor"}, "[8]": {"biological_target": "phosphorylated Poly-(Glu, Tyr) 4:1 (after reaction with EGF-RK and ATP)", "experiment": "RIfS solution competition: antibody incubated with mixture (PGT 10 ug/50 ul, EGF-RK 0.1 Unit/50 ul, EGF 0.5 ug/50 ul, ATP), free antibody read on phosphotyrosine-diamino-PEG 2000 sensor; lower value = antibody taken up by phosphorylated substrate"}, "[9]": {"biological_target": "Raytide EL (protein-tyrosine-kinase substrate, MW 2476 Dalton, Messrs. Calbiochem)", "experiment": "RIfS solution competition: Raytide EL 2 ug/50 ul, EGF-RK 0.5 Units/50 ul, no ATP; free antibody read on phosphotyrosine-diamino-PEG 2000 sensor"}, "[10]": {"biological_target": "oligopeptide Ac-Ile-Tyr-Gly-Glu-Phe-NH2 \"M-2165\" (Messrs. Bachem, MW 668.8)", "experiment": "RIfS solution competition: M-2165 10 ug/50 ul, p60c-src-kinase 4 Units/50 ul, no ATP; free antibody read on phosphotyrosine-aminodextrane (AMD) sensor"}, "[11]": {"biological_target": "phosphorylated Poly-(Glu, Tyr) 4:1 (after reaction with EGF-RK and ATP)", "experiment": "RIfS solution competition; mean of the six complete mixtures of Table 10"}, "[12]": {"biological_target": "phosphorylated Raytide EL (after reaction with EGF-RK and ATP)", "experiment": "RIfS solution competition: Raytide EL 2 ug/50 ul, EGF-RK 0.5 Units/50 ul, ATP; free antibody read on phosphotyrosine-diamino-PEG 2000 sensor; lower value = antibody taken up by phosphorylated substrate"}, "[13]": {"biological_target": "Poly-(Glu, Tyr) 4:1 (MW: 39100, Messrs. Sigma; CAS number 97105-00-5)", "experiment": "RIfS solution competition: antibody incubated with mixture (PGT 10 ug/50 ul, EGF-RK 0.1 Unit/50 ul, EGF 0.5 ug/50 ul, no ATP), free antibody read on phosphotyrosine-diamino-PEG 2000 sensor; high value = antibody not taken up by substrate"}, "[14]": {"biological_target": "phosphorylated Poly-(Glu, Tyr) 4:1 (after reaction with EGF-RK and ATP)", "experiment": "RIfS solution competition: PGT 10 ug/50 ul, EGF-RK 1 Unit/50 ul, ATP, no inhibitor (Tyrphostin 47 series); phosphotyrosine-diamino-PEG 2000 sensor"}, "[15]": {"biological_target": "Poly-(Glu, Tyr) 4:1 (MW: 39100, Messrs. Sigma; CAS number 97105-00-5)", "experiment": "RIfS solution competition: PGT 10 ug/50 ul, EGF-RK 1 Unit/50 ul, no ATP, no inhibitor (control of the staurosporin series); phosphotyrosine-diamino-PEG 2000 sensor"}, "[16]": {"biological_target": "Poly-(Glu, Tyr) 4:1 (MW: 39100, Messrs. Sigma; CAS number 97105-00-5)", "experiment": "RIfS solution competition: PGT 10 ug/50 ul, EGF-RK 1 Unit/50 ul, no ATP, no inhibitor (control of the Tyrphostin 47 series); phosphotyrosine-diamino-PEG 2000 sensor"}, "[17]": {"biological_target": "phosphorylated Poly-(Glu, Tyr) 4:1 (after reaction with EGF-RK and ATP)", "experiment": "RIfS solution competition: PGT 10 ug/50 ul, EGF-RK 1 Unit/50 ul, ATP, no inhibitor (genistein series); phosphotyrosine-diamino-PEG 2000 sensor"}, "[18]": {"biological_target": "Poly-(Glu, Tyr) 4:1 (MW: 39100, Messrs. Sigma; CAS number 97105-00-5)", "experiment": "RIfS solution competition; mean of the two mixtures without ATP of Table 10"}}, "note": "Where “and” joins values, the source holds several entries; their conditions need not be identical. Identical values can stand only once."}
{"substance": "monoclonal murine antibody IgG1 from Ascites: Anti-PhosphoTyrosine (Clone number: PT-66, Messrs. Sigma)", "values": [{"measurement": "Optical layer thickness in nm", "setting": "[1]", "result": 0.225, "unit": "nm"}, {"measurement": "Optical layer thickness in nm", "setting": "[2]", "result": 3.2, "unit": "nm"}, {"measurement": "Optical layer thickness in nm", "setting": "[3]", "result": 0.233, "unit": "nm"}, {"measurement": "Optical layer thickness in nm", "setting": "[4]", "result": 2.4, "unit": "nm"}, {"measurement": "Optical layer thickness in nm", "setting": "[5]", "result": 2.65, "unit": "nm"}, {"measurement": "Optical layer thickness in nm", "setting": "[6]", "result": 0.852, "unit": "nm"}, {"measurement": "Optical layer thickness in nm", "setting": "[7]", "result": "2.06 nm and 2.27 nm"}, {"measurement": "Optical layer thickness in nm", "setting": "[8]", "result": 2.04, "unit": "nm"}, {"measurement": "Optical layer thickness in nm", "setting": "[9]", "result": 3.11, "unit": "nm"}, {"measurement": "Optical layer thickness in nm", "setting": "[10]", "result": 3.81, "unit": "nm"}, {"measurement": "optical layer thickness in nm (mean value)", "setting": "[11]", "result": 0.19, "unit": "nm"}, {"measurement": "Optical layer thickness in nm", "setting": "[12]", "result": 1.83, "unit": "nm"}, {"measurement": "Optical layer thickness in nm", "setting": "[13]", "result": 2.59, "unit": "nm"}, {"measurement": "Optical layer thickness in nm", "setting": "[14]", "result": 0.613, "unit": "nm"}, {"measurement": "Optical layer thickness in nm", "setting": "[15]", "result": 2.99, "unit": "nm"}, {"measurement": "Optical layer thickness in nm", "setting": "[16]", "result": 2.3, "unit": "nm"}, {"measurement": "Optical layer thickness in nm", "setting": "[17]", "result": 0.446, "unit": "nm"}, {"measurement": "optical layer thickness in nm (mean value)", "setting": "[18]", "result": 2.16, "unit": "nm"}]}
